Assay results reported in the DeepSol protein solubility set.

Assay: soluble on expression in E. coli; label from the status in PepcDB or PDB records

Row | Sequence | soluble on expression in E. coli
1 | MGSDKIHHHHHHMNTANPEQALAMSQAKLLCDTMSTLAESPVWDERRQVLFWCDILGKTVRSAALEPGQYREWPFPHTVSSLGLRENGDLVVACGMDIVILDPDSGRTRLLHSIPAPEGIPCRLNDGRVGPDGAFWVGTMHNVPLSEMKPYGELWRITATSAKRMQTGLTCPNGLAFSPDGSIMWQSDSVQKWIRRRNFYRVNGLFDEGVLVAQMTEETGRPDGGCLDSSGTYYSAGVSAGMLNVFAEDGGKQTAAIKMPVPHPTMPCFGGPDFSTLFVTSHRHNMSAERLEQAPFSGGVWMIPTQTKGFAPFRFEG | not soluble
2 | MTMVKTLVALATERMLLKTSGPTFLRGIEFMYAAGLAPDRLSVMMTSSHKYVLQFHSKCDIRPFAANYPNFGRVLRGIVHVREWRIKSIEFVNVAFYMRDVDNLERAIEKLGVELVLLRNCTYPGVQRGDEAVKFLSALNRKKQAVVCEYGDDRLKHRIGRRSSGNRTRRASRNGQEIVNPAIAPGAAAAAQPALEAAPAAPAAGAAAPEANAPQAAPPGIRRPIPLNPDQARHIIPQLLNPGGAQPAPVQDGPVRGPPGIINQGRVVVGAHVYEFRAADVPNADGVPAVHNINHLLNVLNENAGNDVRVIVLPSRVGEGLPIHFNNNDLIFRHQSRPQPAPQQAAAAAAAGAAPAVAVGAEPLPQPDDVQIAPIPADERQARYARVQARLGHMMNARMRQNQEDQQYYYDQQPPNLMVVGTAHAHYRRHMNAQAHQQQREPSWNNYAVANAPPAIIQRNLDAPAPMFGVAVNEPQVQRNGDDSNDSTDREEIYDAEQQRQEALRDLVADPEAQPNFAPVEAQAVDLDMLEEEGEDDEVMEVGGVDGQFMMDGRAVME | not soluble
3 | MTENVNSSGDSAIKSEDKEEVTVIQEGQAKVGFHGPVFYNPVQEFNRDLTVTVLRQFSADHQKWAEEQKQLKTEEEPPKKKNKLAINEDGKIRILDALSASGLRALRFSKEVPNVGFIMANDFSDNAVASIQENVKLNGVEDIVEAHFGDAVMTMMEHRGIDKRFHAVDLDPYGTASTFLDSAVQCVADRGILMVTCTDMAVLCGNTPEACYNKYDAVTTRMKCCHEVGLRILLRAIDSAANRYTRYIEPLVSISVDFYVRVFVRVHTGAFQAKQSGTKVGTVLVCSGCHSMEPLVLLKRGEGNQQSKYSIPTVRHSISGPGNRCIHCLLPLHQIGPIYLAPIHSKPFVTSLLERLKSTPEAERLGTHGRLQGVLTMVNEELDDVLYYEHNQMANVVKVSVPKSQSVRSAILNAGFKVSGSHCNPRAIKTNAPMHLLWDIYRQVAKDTSVDREKRLAKESAGYHILGQPITNTVNFTLHPGAIEQAKKENLVRFQCNKGKNWGPRQKAKGSVNSTKAGFQLTEHKE | not soluble
4 | MPKKILFTGGGTVGHVTLNLILIPKFIKDGWEVHYIGDKNGIEHTEIEKSGLDVTFHAIATGKLRRYFSWQNLADVFKVALGLLQSLFIVAKLRPQALFSKGGFVSVPPVVAAKLLGKPVFIHESDRSMGLANKIAYKFATTMYTTFEQEDQLSKVKHLGAVTKVFKDANQMPESTQLEAVKEYFSRDLKTLLFIGGSAGAHVFN | not soluble
5 | MHHHHHHENLYFQGSTSENITQKVVWVEESDKRSFLLDLLNATGKDSLTLVFVETKKGADSLEDFLYHEGYACTSIHGDRSQRDREEALHQFRSGKSPILVATAVAARGLDISNVKHVINFDLPSDIEEYVHRIGRTGRVGNLGLATSFFNERNINITKDLLDLLVEAKQEVPSWLENMAYEHHY | soluble
6 | MGFLEDKKRTLMNLELAIREGLVDEEIIPILNKINEIDNYYTTSSCIGRVGIMEIPKDKNPKLYSRWLGKWHHYASYDELFNALKNKKEGYIVFVMNSPILHIACKDIESAKKMLELAIHSGLKASSIKSISDKRVIVEILTTYKVDTPIGEDGEIFVDNNYLKFLLDYSNSKLKRAREILMRWANRLDELKK | soluble
7 | MGSDKIHHHHHHMNKRNLLIAIPALCSGYLHGQTQPASPNVIYILMDDLGYGDIGCFGQDKIETPHIDRLCSEGIKLTQHYSGSPVSAPARCVLMTGMHSGHAQIRFNNELAERGAVNNYDSVYVHKELEGQFPLQANTMTIGRMMQQAGYTTGCFGKWGLGYPGSEGTPNKQGFDRFYGYNCQRQSHTYYPPFLYNDEERVYLSNKVTDPHRSPLDKGADPNDPASYAKYTQKEYANDLIFDELMGFVDANKRKPFFLMWTTPLPHVSLQAPERWVQHYVKKFGDEKPYTGQAGYLPCRYPHATYAAMISYFDEQIGQLIEKLKAEHLYENTLIVFTSDNGPTFNGGSDSPWFNSGGLFNSAYGWGKCFLHEGGIRVPAIITWPGKIKPGTQSDHICAFQDVMPTLAELAGITCPPTDGISFLPTLLGKKGKQKEHTYLYWEYPDPRIGNKAIRMGKWKGIITDIRKGNTQMQLYNLETDIREEHDVAAQHPDIVKRFERLMKEARNGPDF | not soluble
8 | MGSDKIHHHHHHMKQKNYHSCTVGQIVAGNFDTTKVFSRYHIDFCCHGNTPFAEACRNRGIDPEAVAHELNELQENTVSNAPDFAGWPIDLLIDYVLKIHHRGIRAKGPQIEALLTKVTEAHSKNHPELLQVQALFRDSLLDLENHLSKEENVLFPYVYEMFQAKEEGLKVAKFHCGTILYPIEVMEDEHNHEGERFEKISSLTNGFTAPEDACASFRLVLQQLKQFEEALHEHIHLENNIIFPRALELEKKEAI | not soluble
9 | MGSDKIHHHHHHSDSFTYPSAYGWWSVDNGYDVNNVNSRMVSGDFNGDGKADVATFYDYGNGASRIHVFTSNGSSFDYASAYGWWNTPSGYDPKRITAVVAGDFNGDHKDDIAVIYNYGNSETRIHVFISTGSSFSYTDCNGWWNATGYDAGRITGAVAGDFNGDGKSDIATMYDYGGGETRIHVFTSTGSSFTYTGANGWWNSTGYDSNRVKGRVVAGDFNGDGKTDIAAMYDYGGSESRIHVFLSTGDSFKYTGANGWWSTTGYDANKVTGRLVAGDFNGDGKADIAAMYDYGNAETRIHVLTSNGDSFTYTGANGWWNTTGYDANRVTGRVVAGDFNGDHKADIAAFYDYGSSASRIHVFTSNADSPESSKGAELVAYAESFLGVPYVWGGADPSGFDCSGLVQYCYEHFGVDLPRTTYDQVNCGTTVTDDLQPGDLLFFGSATSPTHVAIYAGNSKMVEAPHTGANVRLVDIRSYFIAKRIFN | not soluble
10 | MIMLIKKLLETTAAAEEKARQLAEMETDEAWAVYLAEAERQRKLWQYVHYLVAGANADGRAEREQSKAGAPRCDLLQAMAAAEWEKAMLCQNVCQSLNGAAKQAVDAVFRQALRYSGQFLAMAYDERARQTAD | not soluble
11 | MIITGSFGNGHLQVTQSVVNQFKEMNLDNLTVIEHDLFLEAHPILTSICKKWYINSFKYFRNMYKAFYYSQPDQLDKCFYKYYGLNKLMNLLLKEKPDLILLTFPTPVMSVLTEQFDMNIPIATVMTDYRMQKNWITPFSQRYYLATEELKDEFASIGIPKDKLKVTGIPISDKFELEHHHHHH | soluble
12 | MGSDKIHHHHHHMLSRFARQLALPVFNGVLHPTRATSSIAHTIKVAHKIDETREKALLGGGKKRVDAQHARGKLTARERIDLLLDRNTFREYDMFAEHTCNDFGMQKEKYPGDSVVTGRGEINGRTVFVFSQDFTVFGGSLSSIHAKKIVKIMREAMLVGAPVIGLNDSGGARIQEGVESLAGYADIFQENVMASGVVPQISMIMGPCAGGAVYSPALTDFTFMVRDTSYLFITGPDVVKAVTNEEVTQEELGGAKTHTVTSGVAHGAFDNDVDALMSLRELFNYLPLSNTDAAPIRAAEDPWDRAVPSLDTVVPLESTAAYNMKDVVHALVDEGDFFEIMPDYAKNLVIGFARMNGRTVGIVGNNPKFAAGCLDINSSVKGARFVRFCDAFNIPIITLVDVPGFLPGTAQEYGGIIRHGAKLLYAFAEATVPKITIITRKAFGGAYDVMSSKHLRGDINYAWPTAEVAVMGAKGAVSILFRNDKEHAVQHEEEYTELFSNPFPAAVRGFVDDIIIPSETRKKVCEDLNMLESKKLKNPWKKHGNIPL | not soluble
13 | MSLMSVVKVGVNGFGTIGRRVALAITLQKDMKLVGVVKRTPDYAALYAASRGIPIYTPTAKEAEEFEKRGIKVGGTLRELLARVDVVVDATPEGQGAKNKPLYREAGVKQVYQGGEKPEVAEASFSTLCNYEESKGRGSLRVVSCNTTGLLRLICTLNREFGVESVRAVLVRRGADPKEVKKGPIDSIVLNPPTLPSHHAVDVRTVLPWLDIKTAAVAVPTTFMHMHHVTLKLAKPVEKREVLETLASAPRIMLVSSGDTGIKSTSQLVDAARLSRMGYDIPELVVFEESVAVDGREVMLFQAVHQESIVVPENIDAIRAVASSPLTLDETLKATDGSLGLRKTLW | soluble
14 | MTNPQFAGHPFGTTVTAETLRNTFAPLTQWEDKYRQLIMLGKQLPALPDELKAQAKEIAGCENRVWLGYTVAENGKMHFFGDSEGRIVRGLLAVLLTAVEGKTAAELQAQSPLALFDELGLRAQLSASRSQGLNALSEAIIAATKQV | not soluble
15 | MSSASGLRRGHPAGGEENMTETDAFYKREMFDPAEKYKMDHRRRGIALIFNHERFFWHLTLPERRGTCADRDNLTRRFSDLGFEVKCFNDLKAEELLLKIHEVSTVSHADADCFVCVFLSHGEGNHIYAYDAKIEIQTLTGLFKGDKCHSLVGKPKIFIIQACRGNQHDVPVIPLDVVDNQTEKLDTNITEVDAASVYTLPAGADFLMCYSVAEGYYSHRETVNGSWYIQDLCEMLGKYGSSLEFTELLTLVNRKVSQRRVDFCKDPSAIGKKQVPCFASMLTKKLHFFPKSN | soluble
16 | LVLEGGGMRGLYTAGVLDAFLEAGIKVDGVVSVSAGALFGVNYLSNQPKRALRYNKRFMGDRRYMSFWSWLTTGNFVNKEFSYYKVPMELDVFDQDAFAESGVPFYVVATDIKTGKPDYIKIDHVFEQMEALRASSALPLVSEIVEYKGKRYMDGGLADSLPI | not soluble
17 | MARPKSEDKKQALLEAATQAIAQSGIAASTAVIARNAGVAEGTLFRYFATKDELINTLYLHLKQDLCQSMIMELDRSITDAKMMTRFIWNSYISWGLNHPARHRAIRQLAVSEKLTKETEQRADDMFPELRDLCHRSVLMVFMSDEYRAFGDGLFLALAETTMDFAARDPARAGEYIALGFEAMWRALTREEQ | not soluble
18 | MGSDKIHHHHHHMLNPLWLKTFITLVETGHFTQTASKLFMTQPGVSQHLNKLEQACGHQLLIRSRSGIELTEAGERLYQYALSQARAEAALLDSLDEDNPFSGSCRLACSGSLAQLLYPKLLALQAAHPGLKVHMEAAPNARIINEVQQGDKDLGIITAPPPRGLFSDTDIGTQALCLVLPASSEATTDDASLPSINELKVLGLISHPDAAHYLSLFFAHSGSPGYQNAFAEDFPISSYINQLGQILLPVSMGLGFTVLPLSVVEQFSERDKLRVCVGLERVFEPLYLIHKRQRQLPARFDTIRSLIQSVLTSTTDSPQ | not soluble
19 | MPVMSLIEQYEAAIYRGEIDSDPEQREILEHMQRLAEDLQKKSDSWFPWRKKHPIKGLYIYGPVGVGKTYLVDLFYQHIDEEKKARFHFHHFMQQIDAQLRRLQGKKNPLQYIAKEMAKSIRLLCFDEFLVHDVAYAMILAELLQALHHYGVVLVVSSNTRPDELYLNGVHRERFIPAIEIIKKNCEVLNLNQKRDYRLGRQPLLEAYLYPLNEQTQEAMEKQFALITREEDCKGFITVQNRDIPYIKYGTRSIWFAFDVICNFPRSQLDYLEIADRFDNVFLSDVYQLTESHTAQAIMFIHFIDVMYDRGIKLIISADVPAEELYVKGEMKETFKRTLSRLIEMQSVDYLSRHPRRLVKEMLLEHHHHHH | not soluble
20 | MSLTTIDPRSELVDGRRRAGARVDAVGAAALLSAAARVGVVCHVHPDADTIGAGLALALVLDGCGKRVEVSFAAPATLPESLRSLPGCHLLVRPEVMRRDVDLVVTVDIPSVDRLGALGDLTDSGRELLVIDHHASNDLFGTANFIDPSADSTTTMVAEILDAWGKPIDPRVAHCIYAGLATDTGSFRWASVRGYRLAARLVEIGVDNATVSRTLMDSHPFTWLPLLSRVLGSAQLVSEAVGGRGLVYVVVDNREWVAARSEEVESIVDIVRTTQQAEVAAVFKEVEPHRWSVSMRAKTVNLAAVASGFGGGGHRLAAGYTTTGSIDDAVASLRAALGEGHHHHHH | soluble
